# Experimental data as given in patent US20210355194A1.
# Target: COVID S1 RBD Fc fusion (Antigen 1) (SARS-CoV-2), P0DTC2
# Experiment: phage ELISA
# Conditions: remark: other sources report otherwise
row,Binder,ELISA fold over background [fold]
1,SARS-CoV-2 variant 1-49 (antibody) chain 1: EVQLLESGGGLVQPGGSLRLSCAASGFTFSSYAMYWVRQAPGKGLEWVSAISGSAGSTYYADSVKGRFTISRDNSKNTLYLQMNSLRAEDTAVYYCARDTNDFWGQGTLVTVSS chain 2: QSALTQPASVSGSPGQSITISCTGTSSDIGSYNLVSWYQQHPGKAPKLMIYEGTKRPSGVSNRFSGSKSGNTASLTISGLQAEDEADYYCCSYAGSRTYVFGGGTKLTVL,1
2,SARS-CoV-2 variant 1-4 (antibody) chain 1: EVQLLESGGGLVQPGGSLRLSCAASGFTFSSQAMSWVRQAPGKGLEWVSAISGSGGGTYYADSVKGRFTISRDNSKNTLYLQMNSLRAEDTAVYYCAKDRRFGEFDPWGQGTLVTVSS chain 2: QSALTQPASVSGSPGQSITISCTGTSSDVGTYNLVSWYQQHPGKAPKLMIYEGSQRPSGVSNRFSGSKSGNTASLTISGLQAEDEADYYCCSYAGSSSFVVFGGGTKLTVL,1.4
3,SARS-CoV-2 variant 1-31 (antibody) chain 1: EVQLLESGGGLVQPGGSLRLSCAASGFTFSSYAMNWVRQAPGKGLEWVSAISGSGGSTFYADSVKGRFTISRDNSKNTLYLQMNSLRAEDTAVYYCTRPPYGDYGDYWGQGTLVTVSS chain 2: QSALTQPASVSGSPGQSITISCTGTSSDVGKYNLVSWYQQHPGKAPKLMIYEGSQRPSGVSNRFSGSKSGNTASLTISGLQAEDEADYYCCSYAGSRTPVVFGGGTKLTVL,1.3
4,SARS-CoV-2 variant 1-28 (antibody) chain 1: EVQLLESGGGLVQPGGSLRLSCAASGFTFSSYGMSWVRQAPGKGLEWVSAISGSGGGTYYADSVKGRFTISRDNSKNTLYLQMNSLRAEDTAVYYCASSSSWQFDYWGQGTLVTVSS chain 2: QSALTQPASVSGSPGQSITISCTGTSSGVGSYNLVSWYQQHPGKAPKLMIYEGSQRPSGVSNRFSGSKSGNTASLTISGLQAEDEADYYCCSYAGSSTHYVFGGGTKLTVL,1.1
5,SARS-CoV-2 variant 1-30 (antibody) chain 1: EVQLLESGGGLVQPGGSLRLSCAASGFTFSSYAMTWVRQAPGKGLEWVSAISGSGGSTFYADSVKGRFTISRDNSKNTLYLQMNSLRAEDTAVYYCTRPPYGDYGDYWGQGTLVTVSS chain 2: QSALTQPASVSGSPGQSITISCTGTSRDVGSYNLVSWYQQHPGKAPKLMIYEGTKRPSGVSNRFSGSKSGNTASLTISGLQAEDEADYYCCSYAGSRTPVVFGGGTKLTVL,1.7
6,SARS-CoV-2 variant 1-5 (antibody) chain 1: EVQLLESGGGLVQPGGSLRLSCAASGFTFSSQAMSWVRQAPGKGLEWVSAISGSGGGTYYADSVKGRFTISRDNSKNTLYLQMNSLRAEDTAVYYCAKDRRFGEFDPWGQGTLVTVSS chain 2: QSALTQPASVSGSPGQSITISCTGTSSGVGSYNLVSWYQQHPGKAPKLMIYEASKRPSGVSNRFSGSKSGNTASLTISGLQAEDEADYYCCSYAGSYTFAVFGGGTKLTVL,1.6
7,SARS-CoV-2 variant 1-3 (antibody) chain 1: EVQLLESGGGLVQPGGSLRLSCAASGFTFSSQAMSWVRQAPGKGLEWVSAISGSGGGTYYADSVKGRFTISRDNSKNTLYLQMNSLRAEDTAVYYCAKDRRFGEFDPWGQGTLVTVSS chain 2: QSALTQPASVSGSPGQSITISCTGISSDVGSYNLVSWYQQHPGKAPKLMIYEGTKRPSGVSNRFSGSKSGNTASLTISGLQAEDEADYYCCSYAGSSSFVVFGGGTKLTVL,1.8
8,SARS-CoV-2 variant 1-32 (antibody) chain 1: EVQLLESGGGLVQPGGSLRLSCAASGFTFSSYAMYWVRQAPGKGLEWVSAISGSGGSTFYADSVKGRFTISRDNSKNTLYLQMNSLRAEDTAVYYCTRPPYGDYGDYWGQGTLVTVSS chain 2: QSALTQPASVSGSPGQSITISCTGTSSDVGGYNLVSWYQQHPGKAPKLMIYEGNKRPSGVSNRFSGSKSGNTASLTISGLQAEDEADYYCCSYAGSSTFPVVFGGGTKLTVL,1.5
